Assay: soluble on expression in E. coli; label from the status in PepcDB or PDB records

Sequence	soluble on expression in E. coli
MSENSIRLTQYSHGAGCGCKISPKVLETILHSEQAKFVDPNLLVGNETRDDAAVYDLGNGTSVISTTDFFMPIVDNPFDFGRIAATNAISDIFAMGGKPIMAIAILGWPINKLSPEIAREVTEGGRYACRQAGIALAGGHSIDAPEPIFGLAVTGIVPTERVKKNSTAQAGCKLFLTKPLGIGVLTTAEKKSLLKPEHQGLATEVMCRMNIAGASFANIEGVKAMTDVTGFGLLGHLSEMCQGAGVQARVDYEAIPKLPGVEEYIKLGAVPGGTERNFASYGHLMGEMPREVRDLLCDPQTSGGLLLAVMPEAENEVKATAAEFGIELTAIGELVPARGGRAMVEIR	soluble
MSLNREFDVTAPNQVWCGDITYIWAQGKWHYLAVVMDLYARRVLGWAFSKKSDTDLVIKALDMAYEQRGKPQGLLFHSDQGAQYGSRQFRKRLWRYRVRQSMSRRGNCYDNSPMARVFRSLKTEWIPAVGYMTAQEAQGDISHYLMHRYNRVRPHQFNDGLAPAQYEKTLTSEGHHHHHH	not soluble
MMSMIEKLKKFTQIPGISGYEERIREEIIREIKDFADYKVDAIGNLIVELGEGEERILFMAHMDEIGLLITGITDEGKLRFRKVGGIDDRLLYGRHVNVVTEKGILDGVIGATPPHLSLERDKSVIPWYDLVIDIGAESKEEALELVKPLDFAVFKKHFSVLNGKYVSTRGLDDRFGVVALIEAIKDLVDHELEGKVIFAFTVQEEVGLKGAKFLANHYYPQYAFAIDSFACCSPLTGDVKLGKGPVIRAVDNSAIYSRDLARKVWSIAEKNGIEIQIGVTGGGTDASAFQDRSKTLALSVPIKYLHSEVETLHLNDLEKLVKLIEALAFEL	soluble
MGSDKIHHHHHHVSKILIIYSSVHGQTRKLCDFMQRELEALEHSVTCASIDNPPAMEGFDKIVLGASIRHGKHNPRVYDFIRENIKVLQEKASSFFSVSLVARKPAKNTPETNPYMQAFLAKSPWQPKLLAVFGGNLDYQGYNALDRNIIRFIMWITKGPTAPDTKVEYTDWDKVKHYAQQVDAL	not soluble
MGSDKIHHHHHHMTWQVWRLGGLAITMVASLLLLDACSRDKAPVQIRSAVSQLPQTLDPRYATDAASARVNRLIYRSLVDFDVHARPAPSLASWRVLSPRLFRFTLGRHGRDFHDGRYLTAEDVAATYQSVIELADSPHAAEFANISKIEVRDENTLDFFLHDADSNFPARLILGILPAELIARQHDFSREPVGSGPFKFVSWQRSLKLERRSDKKRFVFEEVRDPTVRVLKLVRGEADILQGDLPPELVNYLKQQPGIDVQESEGSNFAYIGLNLQDDVLRNPLVRQALAHAIDRESIIKHALVGHSRLAESILPPEHWAGNGNLKPYEYNPVLARELLLRAGVSLPLKLVYKTSTDAQRVRLATMMQAQMRDAGIQLEIRSLDWGTFFDDIKRGNFQLYGLMWVGIKTPEIYHHAFHSSSVPPKGANRGHYADPKTDELIAVSDWASVAERVHAQLPYIPLWYEGQFAATRDHIKGYSLQPDGSWDGLVDVKRSKLKSVFPGRNQSAGM	not soluble
MGHHHHHHGGHMSLIAITGATGQLGHYVIESLMKTVPASQIVAIVRNPAKAQALAAQGITVRQADYGDEAALTSALQGVEKLLLISSSEVGQRAPQHRNVINAAKAAGVKFIAYTSLLHADTSPLGLADEHIETEKMLADSGIVYTLLRNGWYSENYLASAPAALEHGVFIGAAGDGKIASATRADYAAAAARVISEAGHEGKVYELAGDSAWTLTQLAAELTKQSGKQVTYQNLSEADFAAALKSVGLPDGLADMLADSDVGASKGGLFDDSKTLSKLIGHPTTTLAESVSHLFNVNNEGGS	soluble
MGSDKIHHHHHHMNIRIGCSGWYYPHWAGKFYPSDLNKSEWFRYYAQKFDTVEINSTFYSFPNAARVRSWVKGSPENFVFSVKVNRTITHVKRLKDCDEEIGLFYEIIGSLGKMLGCVLFQFPPSFKYSHDNLIMIEKALDQRFCNVVEFRNISWFSEDARCDLEKSDLHVVAVSSERIPLWIKEDSVVYVRLHGNVNGYATDYNEEYLTDLAQRIIDVKPQSLYVYFNNDYSGYAPKNAIMLKSIINNLIL	not soluble
MEGLLIHAVLRELEKELPAQNLGLAFPEEGTAAILLKGRTGRLFNLVLHYRPPTPSLALEPGRLQGEPKTPFQRQLQARVKGPLVEASQLKLDRVAFFRFAGEKGFVDAPPSVLVLEATGRNANLLLLDEEGRILGVDRVITKEVNRYRELRPGLPYTPPPPYRKLDPRTLAEEDLLPLLGKPLKEVIRHVDGVGQELLRELARRAGLTPETPLDEAGLGRVYRALKTLVEDPSLRTELSEELRRRWAEEEKEALRKPLLEALDREIRTLKARLGDYQEALERLEEAEALRRRADLLLARLKEVPKGAEKVVLEGFDGKPVEIPLDPALSPQENARKLYDRARRLEELAEKALDLIPKTEARIRELEAEKERLRTLDLEGLLALAQRPKGEKGLKVGLRYTSPSGFLVLVGRNAKENDLLTRAAHSEDLWFHAQGVPGSHVILKTEGKNPPLEDLLFAARLAAYHSKARGERQVPVDYTRKKHVWRPRKAAPGQVLYTQAKTLFVEGLLPEPREEA	soluble
MIMKKEKTYSRAPLPFVGQKRMFVSEFKKILKHFDDKTIFVDLFGGSGLLSHITKRERPDAVVIYNDHDNYRERLENIDRTNTLLRDLRKIVGIYPRHQKITGKMREAFLERIRLEETTGFVDYLTLSTSLLFSGKYAQNMEELEGLYFYNKIRQSDYRCDGYLDGLEVVCYDYKELADTYGVFPGVVFLVDPPYMGTDISTYKMDWKLADYLDVLLVLKGH	not soluble
MAHHHHHHMASQKPEDVTVSDGMLANLEREFNEAMRALEGHVKFVCFREEYEKLHRALLNSHESEKRLVRRCQQLTQELMSNAAKMQAAVKLAQDDHTTIEALKKETEKAWRMVDVANEKDARAKETIKKLREEVFSLQEIVENGTELTPTQTATLEELKLEKKRMQSEYDELVKQMETLTRETFELGHKMKEAEEEMMKHQEELRRVTDREKTVRQEYEKELRARDRSNLQLREQLLLVQQREKELKSHEQLHSKLSSAVNLLRLQLQEDQNRRQALAQKIESAERQLYHTQQSYDDAVDTREALNERHREVRKEITEAEKKAVDITAEKQRTHRVRDNDYKELCRLVQQNEDIRRDQTNLERQRLNVEKRIEMARREKEDLCRAFEMMQREKDSLKKVSEKEREKMQIMKN	soluble
MTARDDETIAFYSGHATAYTSRGQAPDRPHLETFLARLRAGAKILELGCGGGQDSEYMLSAGFDVHPTDGTPDIAKAAQARLGIPVRTLLFENIEDAALYDAVWANACLLHVPRLALPGIIGRIHTALKPGGVFYASFKAGEVEGRDTFGRYYNYPSKAWLEETYGQFAWTEVEIEARQGSGYDKLPTDWLHVTATKA	soluble
MAVYRTVQVNFWQDDFVLDLTPEERYFYVYLLTCSKTTQCGIFPFPKRLAEMETGYNRETVDKLVQRFVDYGKILYDAETRELFVLNWLRYNPVTNTNVEKCVLRELKGVKNKEFVHMFLQKCVEEELNVPMLLAHFGMPSDLAVDDVEPVCEEAEEEEVIEEETGSRVFSFYEQHFGSLSPHTVEELSAWMEDLSEELVLKALQIAFENNKRTVAYVKGILRGWHGKGFTKVSEVEADTASFRKKDLSVSTGETEEFLARCEEWEKNAPSEEELQRFLAERGWRP	soluble
MGSDKIHHHHHHMKPERILNVPGAVNFRELGGYQTKFNQTIKWQKLLRSGELSHLTPRTQALLADYGLKYDIDLRSPAEASWSSDKIPAQTIYRFYPVYPIQDNEKSDLPQNKHLKYQAYEQSLYDPYLTMAFSEHSRIAFHQMFVDLLANTNEKESLLFHCAAGKDRTGMAGMLILSALQVPYQTIREDYLLTNLVYSNQDPDELRRQITGKHVDKLIQKMNSVFSVTASSLDHTHDLILDRFGSFDHYFKEALEFSDQDLADLRQIYLE	not soluble
MEYRIERDTMGEVRVPADKYWGAQTQRSLENFRIGTDRFRMPLEIIRAYGMLKKAAARANLELGELPEEIAKAIIQAAEEVVQGKWDDHFPLVVFQTGSGTQTNMNVNEVIANRASEILGKPLGSKYVHPNDHVNRGQSSNDTFPTAMYVAVALALHQRLYPAVEGLIRTFTAKAQAFDQIVKVGRTHLMDAVPITLGQEIGSWAAQLKTTLAAVKEMEKGLYNLAIGGTAVGTGLNAHPRFGELVAKYLAEETGLPFRVAENRFAALAAHDELVNVMGAIRTLAGALMKIGNDVRWLASGPYAGIGEITIPANEPGSSIMPGKVNPTQVEALTMVVVRVYGNDHTVAFAGSQGNFQLNVYKPVMAYSTLESINLLADAVASFDAHLAQGIEPNLERIEEHLQKNPMLATALNKAIGYDKAAEIVKKALKEKKTLKQAALELGYLTEEEFDRIVVPMRLAKPHEGA	soluble
MGSDKIHHHHHHMSDQRYNLRGVSASKEDVHNAIKNIDKGIFPKAFCKIIPDILGGDPEYCNIMHADGAGTKSSLAYMYWKETGDLSVWKGIAQDALIMNIDDLLCVGAVDNILVSSTIGRNKLLVPGEVISAIINGTDELLAELREMGVGCYATGGETADVGDLVRTIIVDSTVTCRMKRSDVIDNKNIQGGDVIVGLASSGQATYEKEYNGGMGSNGLTSARHDVFSKYLAKKYPESYDAAVPKELVYSGGLKLTDKIEELGIDAGKMVLSPTRTYAPVIKVLLDKLRSQIHGMVHCSGGAQTKVMHFVENKRVTKDNLFPIPPLFRTIQEQSGTDWSEMYKVFNMGHRMEIYIAPEHAEEVIGISKSFGIDAQIVGFVEEADKNELIIESEKGRFTY	not soluble
MIVSMKKLAQLLLPLLLPFSAEAGGQPDFCKSINHAGGRYTVCSFDPAKNTIRIYDQDHVSGQGYRNFADLSSALWRQHMFSVFAMNGGMYHSDYSPVGLFVENGVERSPVSTRGGWGNFHLLPNGVFYLDGNTAGVLETEAYLAADPKPDFATQSGPMLVIDGKLHPRFLPDSDSLKRRNGVGVSRDGMVHFAISETTVRFYDFGTLFRDVLDAPNALYLDGTISSVDIPAMNRRDQLFSMGPIIAVVDRVPDLEHHHHHH	not soluble
MKPDAHQVKQFLLNLQDTICQQLTAVDGAEFVEDSWQREAGGGGRSRVLRNGGVFEQAGVNFSHVHGEAMPASATAHRPELAGRSFEAMGVSLVVHPHNPYVPTSHANVRFFIAEKPGAEPVWWFGGGFDLTPFYGFEEDAIHWHRTARDLCQPFGEDVYPRYKKWCDDYFYLKHRNEQRGIGGLFFDDLNTPDFDHCFAFMQAVGKGYTDAYLPIVERRKAMAYGERERNFQLYRRGRYVEFNLVWDRGTLFGLQTGGRTESILMSMPPLVRWEYDYQPKDGSPEAALSEFIKVRDWGLEHHHHHH	not soluble
TKDFSWTTAFNLSHNKNKILKLADLPWFVDGRYVRKEGYPFNTIYLREYAGVDPETGSALYYDNQQDENGNYTKNKVTDPGQASPIPLKDITPTISGGFMNTFNYKFIDLSFNLSYSFGGYSYDNASYILQDDGYSVISNKSTEQRRRWQKPGDITDVPRFVYGNKKGGNYNSSRAIHSTDHIRLKSLILGLNAPKAWLQKLGIGNARIYFSGTNLLTWAAYDQYDPEMSGVVGFYTPPLKTYAFGLELKF	not soluble
EDWNEIDPIKKKDLHHSNGEEKAQSMETLPPGKVRWPDFNQEAYVGGTMVRSGQDPYARNKFNQVESDKLRMDRAIPDTRHD	soluble
MSLGAKKEGFQTMVITDNKRENFYKNFSFIDNIYAYASLDEAVSIINGIKDYGILIPHGSLVEYLGKERVDKIETKIFGNKKIFEWEADQKKKMELLRKSNIKIPEIFERPEDVDRLVIVKLNGAKGGKGYFLARNKSEVKEGIQKLIESKMIRDENEVIIQEYVVGVPMYFQFFYSDIINRTEIFGIDIRYETNIDGLRRLPFEYMKELKINPTFVVVGNIPAVARESLLPVALEYANNFVRTTKELVPPGMIGPFCLESIITDNSDIVVFEFSGRIVAGTNLYVNGSPYSWLYWDEPMSIGRRIAREIRVANEKDKLSLVVSEGHHHHHH	not soluble
